Measurements from patent US20110158985A1.
Where a chain is given by its changes, count along the chain named.

Substrate: F protein of RSV (Long strain) (RSV (Long strain)) (UniProt P12568)
Experiment: cell-based or functional assay

Chain of F protein of RSV (Long strain) (RSV (Long strain)) (P12568 26-574): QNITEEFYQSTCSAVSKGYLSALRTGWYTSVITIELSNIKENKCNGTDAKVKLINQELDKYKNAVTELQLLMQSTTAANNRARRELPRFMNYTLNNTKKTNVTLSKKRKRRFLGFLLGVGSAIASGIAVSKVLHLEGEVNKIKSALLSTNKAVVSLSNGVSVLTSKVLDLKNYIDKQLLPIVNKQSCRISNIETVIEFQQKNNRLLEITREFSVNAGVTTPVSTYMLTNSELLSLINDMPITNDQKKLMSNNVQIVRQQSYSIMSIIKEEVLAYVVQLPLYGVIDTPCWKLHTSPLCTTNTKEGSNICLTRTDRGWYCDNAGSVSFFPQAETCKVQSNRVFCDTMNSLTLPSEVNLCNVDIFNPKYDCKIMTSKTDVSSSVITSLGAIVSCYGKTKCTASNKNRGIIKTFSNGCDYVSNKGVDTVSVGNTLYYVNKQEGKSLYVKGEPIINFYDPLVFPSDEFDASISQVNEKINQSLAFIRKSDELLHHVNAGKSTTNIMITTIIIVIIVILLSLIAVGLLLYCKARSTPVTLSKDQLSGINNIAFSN

B1: P12f4 Fab (Fab, V domains shown)
VH: QVTLRESGPALVKPTQTLTLTCTFSGFSLSTPGMSVGWIRQPPGKALEWLADIWWDGKKHYNPSLKDRLTISKDTSKNQVVLKVTNMDPADTATYYCARDMIFNFYFDVWGQGTTVTVSS
VL: DIQMTQSPSTLSASVGDRVTITCSLSSRVGYMHWYQQKPGKAPKLLIYDTRGLPSGVPSRFSGSGSGTEFTLTISSLQPDDFATYYCFQGSGYPFTFGGGTKVEIK
Which results are given for B1?
IC50: 0.7 nM; Mean IC50 (Control): 0.0351 µg/mL; Mean IC50 (Curve): 0.0464 µg/mL

B2: A1h5 Fab (Fab, V domains shown)
VH: B1 VH with P32A, F105W
VL: B1 VL with R28S, R51F, G52F, L53H, P54R
How did the Mean IC50 (Control) turn out when B2 was run?
The Mean IC50 (Control) was 0.176 µg/mL.

And the Mean IC50 (Curve)?
Its Mean IC50 (Curve) is 0.194 µg/mL.
